Assay results: patent US20230365641A1 (XILIO DEVELOPMENT, published 2023)
Substitutions are numbered along the chain they refer to. Names and notes keep the numbering of the source. Like-named read-outs stand apart in the source and are kept apart here.

What was measured:
[1] = target: T1, PD-1 (antigen of the ELISA and of the in vitro affinity measurement) (UniProt Q15116 25-167, limits assumed); test: kinetic binding table: TC4 captured as ligand (capture level 74.3 RU), hPD1-his as sample; method not given
[2] = target: T1, PD-1 (antigen of the ELISA and of the …); test: ELISA
[3] = target: T1, PD-1 (antigen of the ELISA and of the …); test: ELISA on PD-1
[4] = target: T1, PD-1 (antigen of the ELISA and of the …); test: ELISA on PD-1; remark: listed apart in the source
[5] = target: T1, PD-1 (antigen of the ELISA and of the …); test: ELISA on PD-1; remark: listed apart in the source
[6] = target: T1, PD-1 (antigen of the ELISA and of the …); test: ELISA on PD-1; remark: listed apart in the source
[7] = target: T2, PD-1 shown on cells (Raji-PD-1 cells); CD3/CD28 activated human CD8+ T cells; PD-1 effector cells of the … (human, UniProt Q15116 25-288); test: cell-based or functional assay
[8] = target: T2, PD-1 shown on cells (Raji-PD-1 cells; …); test: cell-based or functional assay; remark: listed apart in the source
[9] = target: T2, PD-1 shown on cells (Raji-PD-1 cells; …); test: cell-based or functional assay; remark: listed apart in the source
[10] = target: T2, PD-1 shown on cells (Raji-PD-1 cells; …); test: flow cytometry, on-cell binding to PD-1 expressing Raji cells, anti-human IgG-PE
[11] = target: T2, PD-1 shown on cells (Raji-PD-1 cells; …); test: as above; remark: listed apart in the source
[12] = target: T2, PD-1 shown on cells (Raji-PD-1 cells; …); test: as above; remark: listed apart in the source
[13] = target: T2, PD-1 shown on cells (Raji-PD-1 cells; …); test: flow cytometry on CD3+CD8+ T cells within CD3/CD28 activated human PBMCs, 1 h at 4 C, anti-human IgG PE, % anti-hIgG+; table CD8+ T cells under the graph
Protocol: Mixed donor lots of human peripheral blood mononuclear cells (PBMCs) were thawed and seeded in medium (RPMI1640, 10% fetal bovine serum (FBS), 2 mM 1-Glutamine, 50 U/mL penicillin, 50 μg/mL streptomycin, 1 μM each of non-essential amino acids, 10 mM HEPES, 1 mM sodium pyruvate, 55 μM B-mercaptoethanol, 10 μg/mL gentamycin) into tissue culture treated plates that were coated for 1 h at 37° C. with 1 μg/ml anti-CD3. Anti-CD28 was added in solution at a concentration of 5 μg/ml. Two days later the PBMCs were collected and transferred into a 96 well v-bottom plate at 100,000 cells per well in FACS Buffer (2% FBS in phosphate buffered saline (PBS)). Test articles were diluted to twice the indicated concentration in FACS buffer. Test articles were added to cells at a 1:1 ratio to the final concentration indicated in the figure and incubated for 1 h at 4° C. The cells were washed three times with FACS buffer and fixed in 4% PFA. Cells were then washed once in FACS buffer. All cells were stained in 100 μL of indicated molecules in FACS buffer for 1 h at 4° C. The cells were washed three times with FACS buffer and fixed in 4% paraformaldehyde (PFA). All cells were subsequently stained in 100 μL with anti-human IgG PE, anti-CD3 PE/Dazzle 594, anti-CD45 PerCP Cy5.5, anti-CD8 BV510, and anti-CD4 BV421 for 30 minutes. Cells were washed twice to remove unbound antibody and analyzed on the BD Celesta by gating on CD3+CD8+ T cells.

T2 sequence (Q15116 25-288): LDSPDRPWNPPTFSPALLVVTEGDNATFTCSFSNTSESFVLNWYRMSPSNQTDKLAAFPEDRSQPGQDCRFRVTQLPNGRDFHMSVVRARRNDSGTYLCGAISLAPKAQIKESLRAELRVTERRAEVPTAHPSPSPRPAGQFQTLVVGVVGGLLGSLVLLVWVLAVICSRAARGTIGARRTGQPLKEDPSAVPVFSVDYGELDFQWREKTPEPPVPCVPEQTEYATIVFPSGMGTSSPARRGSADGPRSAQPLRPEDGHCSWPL
T1 sequence (Q15116 25-167 limits assumed): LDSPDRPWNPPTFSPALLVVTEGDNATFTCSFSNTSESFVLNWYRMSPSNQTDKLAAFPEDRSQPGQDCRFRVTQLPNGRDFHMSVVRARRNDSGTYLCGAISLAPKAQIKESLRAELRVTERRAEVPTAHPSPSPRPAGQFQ

B1: TC4 (Fc fusion)
heavy 1: QVQLVQSGVEVKKPGASVKVSCKASGYTFTNYYMYWVRQAPGQGLEWMGGINPSNGGTNFNEKFKNRVTLTTDSSTTTAYMELKSLQFDDTAVYYCARRDYRFDMGFDYWGQGTTVTVSSASTKGPSVFPLAPSSKSTSGGTAALGCLVKDYFPEPVTVSWNSGALTSGVHTFPAVLQSSGLYSLSSVVTVPSSSLGTQTYICNVNHKPSNTKVDKKVEPKSCDKTHTCPPCPAPELLGGPSVFLFPPKPKDTLMISRTPEVTCVVVDVSHEDPEVKFNWYVDGVEVHNAKTKPREEQYASTYRVVSVLTVLHQDWLNGKEYKCKVSNKALPAPIEKTISKAKGQPREPQVYTLPPCRDELTKNQVSLWCLVKGFYPSDIAVEWESNGQPENNYKTTPPVLDSDGSFFLYSKLTVDKSRWQQGNVFSCSVMHEALHNRFTQKSLSLSPGGGSSPPGGGSSGGGSGPAPTSSSTKKTQLQLEHLLLDLQMILNGINNYKNPKLTAMLTAKFAMPKKATELKHLQCLEEALKPLEEVLNLAQSKNFHLRPRDLISNINVIVLELKGSETTFMCEYADETATIVEFLNRWITFAQSIISTLT
heavy 2: QVQLVQSGVEVKKPGASVKVSCKASGYTFTNYYMYWVRQAPGQGLEWMGGINPSNGGTNFNEKFKNRVTLTTDSSTTTAYMELKSLQFDDTAVYYCARRDYRFDMGFDYWGQGTTVTVSSASTKGPSVFPLAPSSKSTSGGTAALGCLVKDYFPEPVTVSWNSGALTSGVHTFPAVLQSSGLYSLSSVVTVPSSSLGTQTYICNVNHKPSNTKVDKKVEPKSCDKTHTCPPCPAPELLGGPSVFLFPPKPKDTLMISRTPEVTCVVVDVSHEDPEVKFNWYVDGVEVHNAKTKPREEQYASTYRVVSVLTVLHQDWLNGKEYKCKVSNKALPAPIEKTISKAKGQPREPQVCTLPPSRDELTKNQVSLSCAVKGFYPSDIAVEWESNGQPENNYKTTPPVLDSDGSFFLVSKLTVDKSRWQQGNVFSCSVMHEALHNHYTQKSLSLSPGGPPSGSSPVPLSLYSGSGGGAVNGTSQFTCFYNSRANISCVWSQDGALQDTSCQVHAWPDRRRWNQTCELLPVSQASWACNLILGAPDSQKLTTVDIVTLRVLCREGVRWRVMAIQDFKPFENLRLMAPISLQVVHVETHRSNISWEISQASHYFERHLEFEARTLSPGHTWEEAPLLTLKQKQEWISLETLTPDTQYEFQVRVKPLQGEFTTWSPWSQPLAFRTKPAALGKD
light: EIVLTQSPATLSLSPGERATLSCRASKGVSTSGYSYLHWYQQKPGQAPRLLIYLASYLESGVPARFSGSGSGTDFTLTISSLEPEDFAVYYCQHSRDLPLTFGGGTKVEIKRTVAAPSVFIFPPSDEQLKSGTASVVCLLNNFYPREAKVQWKVDNALQSGNSQESVTEQDSKDSTYSLSSTLTLSKADYEKHKVYACEVTHQGLSSPVTKSFNRGEC
[1]
  Kd: 6.58 nM
  koff: 0.00306 s⁻¹
  kon: 465000 M⁻¹ s⁻¹

B2: TC46 (Fc fusion)
heavy 1: B1 heavy 1
heavy 2: B1 heavy 2 with V458M, L460Y, S461D, S464H, G465P, S591A, N592C, S637C
light: B1 light
notes: Mask CD122 (C122A, N123C); also called PembroFab-IgG1 (N297A, MST, RF)-CD122*
[2]
  Kd: 0.33 nM
[3]
  EC50 (read off the curve): ~0.2 nM
[4]
  EC50 (read off the curve): ~0.2 nM
[5]
  EC50 (read off the curve): ~0.2 nM
[6]
  Kd: 0.18 nM
[7]
  EC50 (read off the curve): ~1 nM
[8]
  EC50, PD-1/PD-L1 blockade RGA (NFAT fold induction): 1.34 nM
[9]
  EC50, PD-1/PD-L1 blockade RGA (NFAT fold induction): 1.47 nM
[10]
  EC50 (read off the curve): ~0.7 nM
[11]
  EC50 (read off the curve): ~0.7 nM
[12]
  EC50: 0.8 nM
[13]
  EC50: 0.09 nM
